What was measured:
[1] = molecular target: RGH2-Exo70 domain (residues 1033-1637), purified from E. coli (barley (Hordeum vulgare)); assay: ITC; MicroCal PEAQ-ITC; […]; 25 °C; 20 mM HEPES pH 7.5, 150 mM NaCl, 5% glycerol; […]
[2] = molecular target: RGH2^+-Exo70 domain (residues 1033-1637), purified from E. coli (barley (Hordeum vulgare)); assay: as above

AVR-Pii^Rb, purified from E. coli (natural protein)
Kd [1]: 15 µM
Kd [2]: 3.12 µM

From publication PMC13291817
